The source of these data is paper PMC10261013, “Characterization of p38α autophosphorylation inhibitors that target the non-canonical activation pathway” (Nature Communications, 2023).

One may read the Kd as the equilibrium constant for the complex coming apart. High values mean weaker binding, low ones tighter binding.

In experiment [1] the target is T1, GST-p38α (human p38α with an N-terminal GST-tag, non-phosphorylated) (human, UniProt Q16539 1-360).
T1 construct: p38α (MAPK14), human; non-phosphorylated; The results text says 'p38α'; the methods and the legend say GST-p38α; also called MAPK14; non-phosphorylated p38α; source: E. coli BL21 DE3 or BL21-DE3-pLysS, purified (Glutathione-Sepharose, dialysis); not shown: GST, N-terminal, kept
T1 sequence (Q16539 whole entry): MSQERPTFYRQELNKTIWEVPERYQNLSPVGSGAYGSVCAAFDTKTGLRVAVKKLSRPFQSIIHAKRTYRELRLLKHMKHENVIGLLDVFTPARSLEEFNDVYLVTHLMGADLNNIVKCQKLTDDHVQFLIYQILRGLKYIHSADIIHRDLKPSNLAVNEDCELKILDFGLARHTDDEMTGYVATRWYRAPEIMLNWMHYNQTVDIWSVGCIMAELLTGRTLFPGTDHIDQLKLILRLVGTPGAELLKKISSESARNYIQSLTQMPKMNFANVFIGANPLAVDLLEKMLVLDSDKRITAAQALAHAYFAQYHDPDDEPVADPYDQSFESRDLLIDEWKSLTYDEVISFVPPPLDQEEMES
The experiment is described as follows: thermal shift assay; GST-p38α 1.5 μM with TAB1(386-414) peptide 15 μM, alone or with NC-37 / NC-38; 20 mM TRIS pH 7.5, 100 mM NaCl, 2 mM MgCl2, 2 mM DTT; SYPRO Orange, 25 to 95 °C. Particulars: both partners purified.

Experiment [2] deals with T1, GST-p38α (human p38α with an N-terminal …). Kind of experiment: fluorescence polarisation; direct binding: FITC-TAB1(386-414) 10 nM with non-phosphorylated GST-p38α 0.17–22 μM, 1 h at RT; 20 mM Tris pH 7.5, 100 mM NaCl, 1 mM DTT, 10 mM MgCl2. Particulars: both partners purified. On the technique in general: Fluorescence polarisation rises when a labelled molecule tumbles more slowly, as on binding a larger partner.

Ends that are not written are not given here. * marks the point of attachment. FITC = O=C1OC2(c3ccc(O)cc3Oc3cc(O)ccc32)c2ccc(NC(=S)*)cc21

B1: TAB1(386-414) peptide (peptide)
peptide: RVYPVSVPYSSAQSTSKTSVTLSLVMPSQ
notes: also called TAB1 peptide; source: synthetic peptide, bought: GenScript
B1: the binding result in experiment [1] is on record as “binds”.

B2: FITC-TAB1(386-414) peptide (peptide)
peptide: {FITC}-RVYPVSVPYSSAQSTSKTSVTLSLVMPSQ
notes: source: synthetic peptide, bought: ChinaPeptides
B2 returned a Kd in experiment [2] of 989 ± 160 nM.
